From patent publication US11555069B2, “Cognitive function improving agent” (Kao Corporation, priority 2016, dated 2023)
Each block holds one molecule with its values, some of them ahead of it.

What was measured:
db/db mice [1] = assay: Novel object recognition (long-term memory) test, Example 1; format: in vivo, mouse; conditions: db/db mice 30-week-old, i.p. twice a week, 15 days after start (after six administrations); GIP 5 nmol/kg, anti-GIP antibody 1 mg/kg; FIG. 3
Description: (§1) Six-week-old leptin receptor deficient C57BLKS/J male mice (db/db mice, Oriental Yeast Co., Ltd.) were transferred (room temperature: 23° C., humidity: 55±10%, light period: 7:00 to 19:00) and were fed with food and water ad libitum. The food was CE-2 (CLEA Japan, Inc.), and the mice were acclimated for 2 weeks under the above-mentioned environment and were then used for testing.
(§2) Mouse-derived GIP (manufactured by AnaSpec, Inc.) was dissolved in physiological saline at a concentration of 500 nM to give a GIP solution. […]
The test was performed 5 days before the start of the administration and 15 days after the start of the administration (after six administrations) to measure the long-term memory and learning ability (reference memory). […] On the following day, two identical objects (rubber objects wrapped with blue rubber tape: columns each having 4 cm diameter and 3.5 cm height) were placed in the box (at a position with a space of 10 cm in length and 10 cm in width from the wall), and the behavior of the mouse was video-recorded for 5 minutes to measure the number of recognitions (the number of times the mouse approached each object within 1 cm) (training trial, on the 14th day from the start of the administration). […] The score of long-term memory and learning ability was evaluated by the recognition rate of the novel object in the retention trial (see the following calculation formula). […]

db/db mice [2] = assay: Y-maze (short-term memory) test, Example 1; format: in vivo, mouse; conditions: db/db mice 30-week-old, i.p. twice a week, 20 days after start (after seven administrations); GIP 5 nmol/kg, anti-GIP antibody 1 mg/kg; FIG. 2
Description: as §1, §2
(§3) The test was performed 10 days before the start of the administration and 20 days after the start of the administration (after seven administrations) to measure the short-term memory and learning ability (working memory). Each mouse was placed at an end of a plastic Y-maze (manufactured by Noldus Information Technology) in which the arms each have a length of 40 cm and a height of 12 cm and form an angle of 120° with each other, and the behavior of the mouse was video-recorded for 10 minutes to measure the order and the number of entries into the arms. The score of short-term memory and learning ability was evaluated by the spontaneous alternation behavior change rate (see the following calculation formula). […]

GIP(1-42) = target: T1, GIP(1-42) (Homo sapiens, UniProt P09681); assay: Sandwich ELISA, reactivity with active GIP; format: binding; conditions: biotinylated antibody 1 μg/mL as detection antibody, GIP 8.2 to 2000 pg/mL, FIG. 1
T1 sequence (P09681 52-93): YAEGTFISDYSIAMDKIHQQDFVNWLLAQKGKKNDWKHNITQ
Description: (§4) The reactivity between the monoclonal antibody prepared in Production Example 1 and active GIP was confirmed by ELISA. The amino group of the anti-active GIP monoclonal antibody was biotinylated with NH2 group biotinylation kit (manufactured by Dojindo Laboratories). ELISA was performed using the produced biotinylated anti-active GIP monoclonal antibody at 1 μg/mL instead of a detection antibody, GIP detection antibody (biotinylated anti-total GIP monoclonal antibody), included in Human (total) GIP ELISA kit (manufactured by EMD Millipore Corporation). A […] dilution series of GIP(1-42) or GIP(3-42) was prepared in 6 steps (8.2 to 2000 pg/mL) with a 2000 pg/mL solution as the highest concentration. By using an anti-total GIP monoclonal antibody (included in Human GIP (total) ELISA kit manufactured by EMD Millipore Corporation) as a capture antibody, the biotinylated anti-active GIP monoclonal antibody as a detection antibody, and a peroxidase-streptavidin conjugate for detection, sandwich ELISA was conducted to prepare a calibration curve with GIP concentration on the X-axis and 450 nm-590 nm absorbance on the Y-axis (FIG. 1).

[3] = system: C57BL/6J mice (107-week-old); assay: Y-maze (short-term memory) test in aged mice, Example 3; format: in vivo, mouse; conditions: aged C57BL/6J mice (107-week-old), 0.5 mg/kg i.p. once a week, 6 times; compared to non-administration and control group; FIG. 5
Description: (§5) Four-week-old C57BL/6J male mice (CLEA Japan, Inc.) were transferred (room temperature: 23° C., humidity: 55±10%, light period: 7:00 to 19:00) and were fed with food (D12450K, Research Diets, Inc.) and water ad libitum for 111 weeks.
(§6) The anti-active GIP antibody produced in Production Example 1 was dissolved in physiological saline at a concentration of 0.05 mg/mL to give an anti-GIP antibody solution.
(§7) Physiological saline (control group) or the anti-GIP antibody solution (0.5 mg/kg body weight) (anti-GIP antibody administration group) was intraperitoneally administered to C57BL/6J mice (107-week-old) once a week (9:00 to 10:00 a.m.), 6 times in total.
as §3, with “1 week” for “10 days”, “1 week” for “20 days”, “two administrations), 3 weeks after the start (after four administrations), and 5 weeks after the start (after six” for “seven”, “arms.” for “arms. The score of short-term memory and learning ability was evaluated by the spontaneous alternation behavior change rate (see the following calculation formula).”

[4] = target: T2, PEGylated N-terminus 13 amino acids of inactive GIP (GIP(3-15)) (Homo sapiens, UniProt P09681); assay: Hybridoma screening/cloning ELISA with immobilized antigen (2); format: binding; conditions: hybridoma culture supernatant, immobilized PEGylated GIP(3-15)
T2 construct: made in house; host or cells: peptide synthesis (no expression host)
Description: (§8) Polyethylene glycol was added to N-terminus 15 amino acids of active GIP (GIP(1-15)) (PEGylation (polyethylene glycolation)), and keyhole limpet hemocyanin (KLH) was then chemically bonded thereto to produce KLH-linked PEGylated GIP (1-15) as an immunogen.

GIP(3-42) = target: T3, GIP(3-42) (Homo sapiens, UniProt P09681); assay: Sandwich ELISA, cross-reactivity with inactive GIP; format: binding; conditions: biotinylated antibody 1 μg/mL as detection antibody, GIP 8.2 to 2000 pg/mL, FIG. 1
T3 sequence (P09681 54-93): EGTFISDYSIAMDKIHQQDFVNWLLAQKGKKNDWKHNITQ
Description: as §4

[5] = target: T4, PEGylated N-terminus 15 amino acids of active GIP (GIP(1-15)) (Homo sapiens, UniProt P09681); assay: Hybridoma screening/cloning ELISA with immobilized antigen (1); format: binding; conditions: hybridoma culture supernatant, immobilized PEGylated GIP(1-15)
T4 construct: PEGylated N-terminus 15 amino acids of active GIP (GIP(1-15)); made in house; host or cells: peptide synthesis (no expression host)
Description: as §8

[6] = system: C57BL/6J mice (107-week-old); assay: Novel object recognition (long-term memory) test in aged mice, Example 3; format: in vivo, mouse; conditions: aged C57BL/6J mice (107-week-old), 0.5 mg/kg i.p. once a week, 5 weeks after start; compared to control group; FIG. 6
Description: as §5, §6, §7
The test was performed 5 weeks after the start of the administration to measure the long-term memory and learning ability (reference memory). […] On the following day, two identical objects (rubber objects wrapped with blue rubber tape: columns each having 4 cm diameter and 3.5 cm height) were placed in the box (at a position with a space of 10 cm in length and 10 cm in width from the wall), and the behavior of the mouse was video-recorded for 5 minutes to measure the number of recognitions (the number of times the mouse approached each object within 1 cm) (training trial). […]

Molecule: GIP: Mouse-derived GIP (manufactured by AnaSpec, Inc.) dissolved in physiological saline at 500 nM (YAEGTFISDYSIAMDKIRQQDFVNWLLAQRGKKSDWKHNITQ; Gastric inhibitory polypeptide; UniProt P48756 44-85, looked up)
novel object recognition rate (long-term memory and learning ability) (db/db mice [1]): a decrease in the novel object recognition rate (long-term memory and learning ability) was observed
spontaneous alternation behavior change rate (short-term memory and learning ability) (db/db mice [2]): a decrease in the spontaneous alternation behavior change rate (short-term memory and learning ability) was observed

ELISA reaction with antigen (2) for measurement [4]: negative for the antigen (2)
ELISA reaction with antigen (1) for measurement [5]: positive for the antigen (1)
B1: monoclonal antibody prepared in Production Example 1: anti-active GIP monoclonal antibody produced by hybridoma 9B9H5-B9 line; H-chain variable region SEQ ID NO: 2, L-chain variable region SEQ ID NO: … (antibody, listed as Mus musculus, V domains shown)
VH: QVQLQQPGAELVKPGASVKLSCKASGYTFTSFWMHWVIQRPGQGLEWIGEMNPSDGRTHFNEKFKTKATLTIDTSSNTAYMELNSLTSEDSAVYYCARRMEDWGQGTLVTVSA
VL: DIKMTQSPSSMYASLGERVTITCKASQDINSYLGWFQQKPGKSPKTLIYGANRLVDGVPSRFSGSGSGQDYSLTISSLEYDDMGIYYCLQYDEFPLTFGAGTKLELKR
reactivity with GIP(1-42) (450 nm-590 nm absorbance) (GIP(1-42)): capable of specifically detecting GIP(1-42)
spontaneous alternation behavior change rate (short-term memory and learning ability) [3]: an increase in the spontaneous alternation behavior change rate (short-term memory and learning ability) was observed
cross-reactivity with GIP(3-42) (450 nm-590 nm absorbance) (GIP(3-42)): does not show cross-reactivity with GIP(3-42)
novel object recognition rate (long-term memory and learning ability) [6]: an increase in the novel object recognition rate (long-term memory and learning ability) was observed
